In data set [1] the target is T1, TGF-β1 (Homo sapiens, UniProt P01137 P01137:279-390). Briefly: cell_activity; SBE-luciferase HEK293, 80 pM:20 nM. As to conditions: tags: Recombinant Human TGF-β1, Peprotech; chain copies: 2 (homodimer, inferred). The protocol: (§1) Whether the nucleic acids of SEQ ID NOs: 4-13, 17-22, 26-28 inhibit the activity of TGF-β1 was evaluated by a cell assay system that monitors Smad signaling pathway known to be activated by the stimulation of TGF-β. To be specific, photinus luciferase equipped with SBE (Smad-binding element) in the promoter region was used as a reporter (pGL4.48[luc2P/SBE/Hygro] Vector, Promega KK). Together with this SBE-induced photinus luciferase reporter plasmid, a renillaluciferase expression plasmid (pGL4.74[hRluc/TK] Vector, Promega KK) was mixed at a ratio of 20:1 as a standardized control for transfection efficiency, and transfected into HEK293 cells. The transfected HEK293 cells were re-seeded in a 96-well plate and cultured until confluent. TGF-β1 and a mixture of nucleic acid aptamers of SEQ ID NOs: 4-13, 17-22, 26-28 synthesized using T7 RNA polymerase (Y639F) were added thereto to respective final concentrations of 80 pM, 20 nM, and the cells were cultured for 3 hr. Thereafter, the expression levels of photinus luciferase and renillaluciferase were confirmed using Dual-Luciferase (registered trade mark) Reporter Assay System (Promega KK). The measurement value of photinus luciferase in each sample was corrected with the measured value of renillaluciferase, and the relative expression level of each sample was calculated by setting the ratio of photinus luciferase and renillaluciferase in a sample free of addition of TGF-β1 as 1. […] When a nucleic acid pool of 35N, 40N or 50N (SEQ ID NO: 14, 1, 23) was used as a negative control and a known TGF-β antibody (R&D, MAB1835) was used as a positive control, the same treatment and measurement were performed.
T1 sequence (P01137 279-390, one chain of several): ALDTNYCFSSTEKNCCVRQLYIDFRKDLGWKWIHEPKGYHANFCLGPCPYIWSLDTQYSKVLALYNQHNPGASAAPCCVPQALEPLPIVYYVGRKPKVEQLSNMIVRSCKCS

Data set [2] has as its target T1, TGF-β1. Briefly: SPR; ++. As to conditions: tags: Recombinant Human TGF-β1, Peprotech; chain copies: 2 (homodimer, inferred).
The target of data set [3] is T1, TGF-β1. Briefly: cell_activity; 80 pM:312.5 pM. As to conditions: tags: Recombinant Human TGF-β1, Peprotech; chain copies: 2 (homodimer, inferred). The procedure:
as §1, with “TGF-β1 and a mixture of nucleic acid aptamers of SEQ ID NOs: 4-13, 17-22, 26-28 synthesized using T7 RNA polymerase (Y639F) were added thereto to respective final concentrations of 80 pM, 20 nM, and the cells were cultured for 3 hr.” left out
The nucleic acids of SEQ ID NOs: 42(2-1)-42(2-8) used were chemically synthesized and purified by HPLC. Whether or not these nucleic acids inhibit the binding of TGF-β1 to the TGF-β receptor was determined by injecting a mixed solution of TGF-β1 (4 nM) and nucleic acid (4 nM) in the same manner as in Example 4, and evaluating by the surface plasmon resonance method.

The target in data set [4] is T1, TGF-β1. Briefly: SPR; receptor-binding inhibition, 4 nM:4 nM. As to conditions: tags: Recombinant Human TGF-β1, Peprotech; chain copies: 2 (homodimer, inferred). The procedure: (§2) Measurement of Inhibitory Activity of Aptamer Against TGF-β1-2 Whether or not the nucleic acids of SEQ ID NOs: 6, 9, 19, 21, 26 inhibit the binding of TGF-β1 to the TGF-β receptor was evaluated by surface plasmon resonance method. For the measurement, Biacore T200 manufactured by GE Healthcare was used, and the measurement was performed by the method shown below. About 1500 RU of protein A was immobilized on the surface of a sensor chip of CM4 chip by using an amine coupling kit. 20 μL of Fc fusion TRII receptor (R&D) adjusted to 30 nM was injected as an analyte at a flow rate of 20 μL/min. As a result, the Fc fusion TRII receptor was immobilized on the surface of the sensor chip of the CM4 chip via protein A. Furthermore, a mixed solution of TGF-β1 (4 nM) or TGF-β1 (10 nM), and nucleic acid (30 nM) was injected. Solution A was used as the running buffer. Based on the RU value of a sample injected with TGF-β1 alone and the RU value before injection of TGF-β1, the effect of suppressing an increase in the RU value when TGF-β1 was injected in the presence of nucleic acid was calculated as the effect of inhibiting the binding of TGF-β1 to the TRII receptor.
The nucleic acids of SEQ ID NOs: 42(2-1)-42(2-8) used were chemically synthesized and purified by HPLC. Whether or not these nucleic acids inhibit the binding of TGF-β1 to the TGF-β receptor was determined by injecting a mixed solution of TGF-β1 (4 nM) and nucleic acid (4 nM) in the same manner as in Example 4, and evaluating by the surface plasmon resonance method. Whether or not these nucleic acids inhibit the activity of TGF-β1 was evaluated by adding to the final concentrations of TGF-β1 (80 pM) and nucleic acid (312.5 pM), and by a luciferase reporter assay as in Example 4.
(SPR reads the build-up and loss of mass on a sensor chip optically.)

The target in data set [5] is T1, TGF-β1. Nature of the data set: SPR; receptor-binding inhibition, 4 nM:4 nM. As to conditions: tags: Recombinant Human TGF-β1, Peprotech; chain copies: 2 (homodimer, inferred). The procedure: as §2
The nucleic acids of SEQ ID NOs: 42-48 used were chemically synthesized and purified by HPLC. Whether or not these nucleic acids inhibit the binding of TGF-β1 to the TGF-β receptor was determined by injecting a mixed solution of TGF-β1 (4 nM) and nucleic acid (4 nM) in the same manner as in Example 4, and evaluating by the surface plasmon resonance method.
This is another data set of the same source.

Data set [6] concerns the target T1, TGF-β1. Nature of the data set: cell_activity; 80 pM:312.5 pM. As to conditions: tags: Recombinant Human TGF-β1, Peprotech; chain copies: 2 (homodimer, inferred). The procedure:
as §1
Whether or not these nucleic acids inhibit the activity of TGF-β1 was evaluated by adding to the final concentrations of TGF-β1 (80 pM) and nucleic acid (312.5 pM), and by a luciferase reporter assay as in Example 4.
This is another data set of the same source.

Data set [7] deals with T1, TGF-β1. Nature of the data set: cell_activity; 80 pM:20 nM. As to conditions: tags: Recombinant Human TGF-β1, Peprotech; chain copies: 2 (homodimer, inferred); G4 (predicted). The procedure:
as §1
Whether or not these nucleic acids inhibit the activity of TGF-β1 was evaluated by a luciferase reporter assay similar to that in Example 4, as in Example 1.

Where a chain is given by its changes, count along the chain named.

B1: SEQ ID NO: 19 (ssRNA)
RNA: GGGAGAACUUGGAGCUCCCCCUCGCAUUCGGAUUAAUUUGUGACUGCAUUGAGUGCGACGUCAGUC
modifications: 2'-F all pyrimidines (U,C)
For B1, in the data set with TGF-β1 [1], the activity came out at 91 % inhibition.

B2: SEQ ID NO: 18 (ssRNA)
RNA: GGGAGAACUUGGAGCUCCCCCUCGCACUUAAUGGGUUCUGUGGCUGGAGAAAGUGCGACGUCAGUC
modifications: 2'-F all pyrimidines (U,C)
As to B2, in the data set with TGF-β1 [2], the binding result is listed as “binds”.

B3: SEQ ID NO: 42(2-3) (ssRNA)
RNA: GGCAUAAGGGAGGGGAGACUUGUGGAGGGCAAG
modifications: 2'-OMe at A4, A11; 2'-F all pyrimidines
With B3, the activity with TGF-β1 [3] is 66 % inhibition. For the same molecule, the binding signal in the data set with TGF-β1 [4] amounted to 70.7 % inhibition.

B4: SEQ ID NO: 45 (ssRNA)
RNA: B3 RNA with A26U
modifications: 2'-F all pyrimidines (U,C)
In the case of B4, in the data set with TGF-β1 [5], the binding signal is 99.2 % inhibition. In addition, the activity in the data set with TGF-β1 [6] was 65.5 % inhibition.

B5: SEQ ID NO: 46 (ssRNA)
RNA: B3 RNA with A11U, A26U
modifications: 2'-F all pyrimidines (U,C)
As to B5, the binding signal with TGF-β1 [5] came to 99.2 % inhibition. Moreover, the activity with TGF-β1 [6] was 57.3 % inhibition.

B6: SEQ ID NO: 42(2-5) (ssRNA)
RNA: B3 RNA
modifications: 2'-OMe at A11, G17; 2'-F all pyrimidines
Take B6: the activity with TGF-β1 [3] was found to be 62 % inhibition. Further, in the data set with TGF-β1 [4], the binding signal came to 75.6 % inhibition.

B7: SEQ ID NO: 42(2-2) (ssRNA)
RNA: B3 RNA
modifications: 2'-OMe at G1, A11; 2'-F all pyrimidines
As for B7, the activity in the data set with TGF-β1 [3] was found to be 66 % inhibition. In the data set with TGF-β1 [4], the binding signal was 76 % inhibition.

B8: SEQ ID NO: 43 (ssRNA)
RNA: B3 RNA with A11U
modifications: 2'-F all pyrimidines (U,C)
As to B8, the binding signal with TGF-β1 [5] is 99 % inhibition. Besides, the activity in the data set with TGF-β1 [6] turned out to be 71.5 % inhibition.

B9: SEQ ID NO: 42(2-1) (ssRNA)
RNA: B3 RNA
modifications: 2'-OMe at A11, A26; 2'-F all pyrimidines
On to B9, for which the activity in the data set with TGF-β1 [3] was 61 % inhibition. Also, the binding signal with TGF-β1 [4] came out at 75.2 % inhibition.

B10: SEQ ID NO: 44 (ssRNA)
RNA: B3 RNA with A11C
modifications: 2'-F all pyrimidines (U,C)
Turning to B10, in the data set with TGF-β1 [5], the binding signal worked out at 98.7 % inhibition. Further, the activity with TGF-β1 [6] worked out at 69.4 % inhibition.

B11: SEQ ID NO: 42(2-4) (ssRNA)
RNA: B3 RNA
modifications: 2'-OMe at A11, A16; 2'-F all pyrimidines
For the molecule B11, the activity with TGF-β1 [3] is 64 % inhibition. For the same molecule, in the data set with TGF-β1 [4], the binding signal was determined as 84.2 % inhibition.

B12: SEQ ID NO: 48 (ssRNA)
RNA: B3 RNA with A26C, C30U, G33A
modifications: 2'-F all pyrimidines (U,C)
With B12, in the data set with TGF-β1 [5], the binding signal turned out to be 93.5 % inhibition. Moreover, in the data set with TGF-β1 [6], the activity was found to be 63.9 % inhibition.

B13: SEQ ID NO: 42(2-7) (ssRNA)
RNA: B3 RNA
modifications: 2'-OMe at A11, A32; 2'-F all pyrimidines
Consider B13, for which the activity in the data set with TGF-β1 [3] turned out to be 78 % inhibition. In the data set with TGF-β1 [4], the binding signal is 78.9 % inhibition.

B14: SEQ ID NO: 42(2-8) (ssRNA)
RNA: B3 RNA
modifications: 2'-OMe at A11, G33; 2'-F all pyrimidines
Take B14: the activity with TGF-β1 [3] is 72 % inhibition. Besides, the binding signal with TGF-β1 [4] stood at 83 % inhibition.

B15: SEQ ID NO: 42(2-6) (ssRNA)
RNA: B3 RNA
modifications: 2'-OMe at A11, A31; 2'-F all pyrimidines
On to B15, for which, in the data set with TGF-β1 [3], the activity stood at 72 % inhibition. In the data set with TGF-β1 [4], the binding signal was determined as 81.8 % inhibition.

B16: SEQ ID NO: 47 (ssRNA)
RNA: B3 RNA with A11C, A26U
modifications: 2'-F all pyrimidines (U,C)
With B16, the binding signal with TGF-β1 [5] is 99.2 % inhibition. For the same molecule, the activity with TGF-β1 [6] stood at 70.3 % inhibition.

B17: SEQ ID NO: 28 (ssRNA)
RNA: GGGAAUGCACUAGUGUUCAAUAAACACUAAGUGAUCCUCCUGCAAGCUAUGAAGAACUUAACGGCUCGUAAAGCUUGCACGUCGAGUCAG
modifications: 2'-F all pyrimidines (U,C)
B17: the binding result with TGF-β1 [2] is given as “binds”.

B18: SEQ ID NO: 20 (ssRNA)
RNA: GGGAGAACUUGGAGCUGGUCCGGAAACUGGAUUCUCUCUAAAAGGGGUACCAGUGCGACGUCAGUC
modifications: 2'-F all pyrimidines (U,C)
Turning to B18, the binding result in the data set with TGF-β1 [2] is on record as “binds”.

B19: SEQ ID NO: 5 (ssRNA)
RNA: GGGAUCCGCAUCUAGAGUACAUCGUGGCGGGAAAGCCGCCCCAUUCUCUCGGGUCCUAGAAACGUCUACUGAAGCUAUCA
modifications: 2'-F all pyrimidines (U,C)
B19: the binding result with TGF-β1 [2] is “binds”.

B20: SEQ ID NO: 36 (ssRNA)
RNA: GGGAGAACUUGGAGCUCCUGAAUAAGGGAGGGGAGACUUGUGGAGGGCAAAAGUGCGACGUCAGUC
modifications: 2'-F all pyrimidines (U,C)
B20: in the data set with TGF-β1 [7], the activity was 101 % inhibition.

B21: SEQ ID NO: 11 (ssRNA)
RNA: GGGAUCCGCAUCUAGAGUACCGCGUGAGCGGCGUCUUGCUAUGACGUAAAGAAUCGUUACAACGUCUACUGAAGCUAUCA
modifications: 2'-F all pyrimidines (U,C)
As for B21, in the data set with TGF-β1 [2], the binding result is given as “binds”.

B22: SEQ ID NO: 4 (ssRNA)
RNA: GGGAUCCGCAUCUAGAGUACUAAGGGUGGGGAGACUUGGGCCGGGCAGUCAGACGCGUGAAACGUCUACUGAAGCUAUCA
modifications: 2'-F all pyrimidines (U,C)
B22: in the data set with TGF-β1 [1], the activity stood at 63 % inhibition.

B23: SEQ ID NO: 22 (ssRNA)
RNA: GGGAGAACUUGGAGCUUGACGGCGCUACAUUAUGCUCCAACGGUACUUUAUAGUGCGACGUCAGUC
modifications: 2'-F all pyrimidines (U,C)
B23: the binding result with TGF-β1 [2] is “binds”.

Source of the values: patent US20220282255, “APTAMER FOR TGF-BETA1 AND USE OF SAME” (RIBOMIC INC., published 2022).
